Each block holds one molecule with its values, some of them ahead of it.
Tests used:
[1] = molecular target: T1, Drosophila Pum RNA-binding domain (amino acids 1091–1426), crystallisation construct (Drosophila melanogaster) (UniProt P25822)
T1 sequence: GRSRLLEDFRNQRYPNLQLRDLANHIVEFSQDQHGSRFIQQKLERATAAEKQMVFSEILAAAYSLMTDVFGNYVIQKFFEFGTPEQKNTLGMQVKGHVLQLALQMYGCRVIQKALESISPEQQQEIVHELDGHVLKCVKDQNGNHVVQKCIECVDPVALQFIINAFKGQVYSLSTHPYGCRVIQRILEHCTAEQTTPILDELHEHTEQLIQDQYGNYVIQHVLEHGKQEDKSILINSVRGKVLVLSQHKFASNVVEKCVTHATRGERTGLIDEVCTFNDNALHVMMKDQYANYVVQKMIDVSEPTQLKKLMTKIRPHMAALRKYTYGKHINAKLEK

[2] = molecular target: T2, Pum PUM-HD WT (EMSA);Nos ZC WT (EMSA) (Drosophila melanogaster?;Drosophila …, UniProt P25822;P25724 1091-1426;289-401, |); experiment: EMSA; Pum titrated, 1 uM Nos ZC constant; EMSA: 50 mM Tris-HCl pH 7.6, 150 mM NaCl, 2 mM DTT, 2 ug/mL BSA, 0.01% Igepal CA-630, 0.02% bromophenol blue, 20% glycerol, 3 h at 4 C; 1 nM Cy5 RNA or 0.3 nM 32P RNA; conditions: protein: recombinant;recombinant, tags: N-terminal 3xFLAG, Halo-tag removed by TEV;C-terminal V5, copies: 1;1, label: 5' 32P
T2 sequence 1: T1 sequence
T2 sequence 2: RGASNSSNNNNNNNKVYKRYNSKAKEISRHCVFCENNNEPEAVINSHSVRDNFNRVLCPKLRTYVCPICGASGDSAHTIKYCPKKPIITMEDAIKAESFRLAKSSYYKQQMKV

Pum PUM-HD WT (EMSA) [3] = molecular target: T3, Pum PUM-HD WT (EMSA) (UniProt P25822 1091-1426); experiment: EMSA; no stable binding; EMSA: 50 mM Tris-HCl pH 7.6, 150 mM NaCl, 2 mM DTT, 2 ug/mL BSA, 0.01% Igepal CA-630, 0.02% bromophenol blue, 20% glycerol, 3 h at 4 C; 1 nM Cy5 RNA or 0.3 nM 32P RNA; conditions: protein: recombinant; tags: N-terminal 3xFLAG; Halo-tag removed by TEV; label: 5' 32P
T3 sequence: T1 sequence

[4] = molecular target: T4, Pum RNA-binding domain (aa1091-1426) with N-terminal triple FLAG tag, EMSA construct (Drosophila melanogaster, UniProt P25822-1 1091-1426); experiment: EMSA, Nos binding to Pum–hb NRE2 RNA complex (100 nM Pum)
T4 chain: T1 sequence

Pum PUM-HD WT (EMSA) [5] = molecular target: T3, Pum PUM-HD WT (EMSA); experiment: EMSA; no stable complex, Pum up to 1 uM; EMSA: 50 mM Tris-HCl pH 7.6, 150 mM NaCl, 2 mM DTT, 2 ug/mL BSA, 0.01% Igepal CA-630, 0.02% bromophenol blue, 20% glycerol, 3 h at 4 C; 1 nM Cy5 RNA or 0.3 nM 32P RNA; conditions: protein: recombinant; tags: N-terminal 3xFLAG; Halo-tag removed by TEV; label: 5' 32P
[6] = molecular target: T5, Pum RNA-binding domain (crystal);Nos ZF domain (crystal) (Drosophila melanogaster?;Drosophila …, UniProt P25822;P25724 1091-1426;289-401, |); experiment: X-ray crystallography; 4.0 A; Zn2+; EMSA: 50 mM Tris-HCl pH 7.6, 150 mM NaCl, 2 mM DTT, 2 ug/mL BSA, 0.01% Igepal CA-630, 0.02% bromophenol blue, 20% glycerol, 3 h at 4 C; 1 nM Cy5 RNA or 0.3 nM 32P RNA; conditions: protein: recombinant;recombinant; tags: His6-SUMO removed by Ulp1;His6-SUMO removed by Ulp1; copies: 1;1
T5 sequence 1: T1 sequence
T5 sequence 2: T2 sequence 2

[7] = molecular target: T6, Pum RNA-binding domain (crystal) (UniProt P25822 1091-1426); experiment: X-ray crystallography; 1.14 A; EMSA: 50 mM Tris-HCl pH 7.6, 150 mM NaCl, 2 mM DTT, 2 ug/mL BSA, 0.01% Igepal CA-630, 0.02% bromophenol blue, 20% glycerol, 3 h at 4 C; 1 nM Cy5 RNA or 0.3 nM 32P RNA; conditions: protein: recombinant; tags: His6-SUMO removed by Ulp1
T6 sequence: T1 sequence

Pum PUM-HD WT (EMSA) [8] = molecular target: T3, Pum PUM-HD WT (EMSA); experiment: EMSA; no stable binary complex; EMSA: 50 mM Tris-HCl pH 7.6, 150 mM NaCl, 2 mM DTT, 2 ug/mL BSA, 0.01% Igepal CA-630, 0.02% bromophenol blue, 20% glycerol, 3 h at 4 C; 1 nM Cy5 RNA or 0.3 nM 32P RNA; conditions: protein: recombinant; tags: N-terminal 3xFLAG; Halo-tag removed by TEV; label: 5' 32P
[9] = molecular target: T2, Pum PUM-HD WT (EMSA);Nos ZC WT (EMSA); experiment: EMSA; 1 uM Nos ZC; Kd only in figure; EMSA: 50 mM Tris-HCl pH 7.6, 150 mM NaCl, 2 mM DTT, 2 ug/mL BSA, 0.01% Igepal CA-630, 0.02% bromophenol blue, 20% glycerol, 3 h at 4 C; 1 nM Cy5 RNA or 0.3 nM 32P RNA; conditions: protein: recombinant;recombinant, tags: N-terminal 3xFLAG, Halo-tag removed by TEV;C-terminal V5, copies: 1;1, label: 5' 32P
Pum PUM-HD WT (EMSA) [10] = molecular target: T3, Pum PUM-HD WT (EMSA); experiment: EMSA; N/D; EMSA: 50 mM Tris-HCl pH 7.6, 150 mM NaCl, 2 mM DTT, 2 ug/mL BSA, 0.01% Igepal CA-630, 0.02% bromophenol blue, 20% glycerol, 3 h at 4 C; 1 nM Cy5 RNA or 0.3 nM 32P RNA; conditions: protein: recombinant; tags: N-terminal 3xFLAG; Halo-tag removed by TEV; label: 5' 32P
[11] = molecular target: T2, Pum PUM-HD WT (EMSA);Nos ZC WT (EMSA); experiment: EMSA; 1 uM Nos ZC; N/D; EMSA: 50 mM Tris-HCl pH 7.6, 150 mM NaCl, 2 mM DTT, 2 ug/mL BSA, 0.01% Igepal CA-630, 0.02% bromophenol blue, 20% glycerol, 3 h at 4 C; 1 nM Cy5 RNA or 0.3 nM 32P RNA; conditions: protein: recombinant;recombinant, tags: N-terminal 3xFLAG, Halo-tag removed by TEV;C-terminal V5, copies: 1;1, label: 5' 32P
Pum PUM-HD WT (EMSA) [12] = molecular target: T3, Pum PUM-HD WT (EMSA); experiment: EMSA; EMSA: 50 mM Tris-HCl pH 7.6, 150 mM NaCl, 2 mM DTT, 2 ug/mL BSA, 0.01% Igepal CA-630, 0.02% bromophenol blue, 20% glycerol, 3 h at 4 C; 1 nM Cy5 RNA or 0.3 nM 32P RNA; conditions: protein: recombinant; tags: N-terminal 3xFLAG; Halo-tag removed by TEV

- percent repression of the RnLuc WT hb 3´UTR reporter in D.mel-2 cells (endogenous Pum), against Halo-tag alone [1]: 46%
Molecule: Halo-Nos I376A (full-length) (natural protein)

- percent repression of the RnLuc WT hb 3´UTR reporter in D.mel-2 cells (endogenous Pum), against Halo-tag alone [1]: 29%
Molecule: Halo-Nos M378A (full-length) (natural protein)

- percent repression of the RnLuc WT hb 3´UTR reporter in D.mel-2 cells (endogenous Pum), against Halo-tag alone [1]: 14%
Molecule: Halo-Nos NZ (aa1-373) (domain or fragment)

- percent repression of the RnLuc WT hb 3´UTR reporter in D.mel-2 cells (endogenous Pum), against Halo-tag alone [1]: 60%
Molecule: Halo-Nos I382A (full-length) (natural protein)

- percent repression of the RnLuc WT hb 3´UTR reporter in D.mel-2 cells (endogenous Pum), against Halo-tag alone [1]: 27%
B1: Halo-Nos Δ376–382 (aa1-375 + 383–401) (natural protein)
chain: MFRSNLEGSGAAADNFSAFHARGGLNILGLQDMYLDTSGANSSATLSPPITPVTPDPSTSAQSTHFPFLADSAATANSLLMQRQYHYHLLLQQQQQLAMAQHQLALAASAAAASASHQQTDEIARSLKIFAQVTTGAAENAAGSMQDVMQEFATNGYASDDLGRMSYGSAPPQVQMPPQQQHQQQQGLHLPLGRNPAQLQTNGGNLMPIPLATHWLNNYREHLNNVWRNMSYIPAAPNTMGLQAQTAATVSTNLGVGMGLGLPVQGEQLRGASNSSNNNNNNNKVYKRYNSKAKEISRHCVFCENNNEPEAVINSHSVRDNFNRVLCPKLRTYVCPICGASGDSAHTIKYCPKKPIKAESFRLAKSSYYKQQMKV

Molecule: AAAUUGGACAUAAGCC (ssRNA) [hb NRE2 +3G RNA]
- Kd [2]: 59.9 nM
- binding result (Pum PUM-HD WT (EMSA) [3]): no binding

- Kd [4]: 4.6 nM
B2: Nos ZC (aa289-401) with C-terminal V5 epitope, EMSA construct (domain or fragment)
chain: T2 sequence 2
modifications: two Zn2+ bound by the CCHC zinc fingers; C-terminal V5 epitope omitted

Molecule: UAUUUGUAAUUUAUAUC (ssRNA) [CycB NRE RNA (EMSA)]
- Kd [2]: 12 nM
- binding result (Pum PUM-HD WT (EMSA) [5]): no binding

Molecule: UAUUUGUAAUUUAU (ssRNA) [CycB NRE RNA 14-nt (crystal)]
- binding result [6]: binds

Molecule: UGUACAUA (ssRNA) [hb PRE2 RNA 8-nt]
- binding result [7]: binds

- percent repression of the RnLuc WT hb 3´UTR reporter in D.mel-2 cells (endogenous Pum), against Halo-tag alone [1]: 43%
B3: Halo-Nos Δ383–393 (aa1-382 + 394–401) (natural protein)
chain: MFRSNLEGSGAAADNFSAFHARGGLNILGLQDMYLDTSGANSSATLSPPITPVTPDPSTSAQSTHFPFLADSAATANSLLMQRQYHYHLLLQQQQQLAMAQHQLALAASAAAASASHQQTDEIARSLKIFAQVTTGAAENAAGSMQDVMQEFATNGYASDDLGRMSYGSAPPQVQMPPQQQHQQQQGLHLPLGRNPAQLQTNGGNLMPIPLATHWLNNYREHLNNVWRNMSYIPAAPNTMGLQAQTAATVSTNLGVGMGLGLPVQGEQLRGASNSSNNNNNNNKVYKRYNSKAKEISRHCVFCENNNEPEAVINSHSVRDNFNRVLCPKLRTYVCPICGASGDSAHTIKYCPKKPIITMEDAIYYKQQMKV

Molecule: UGAUUGUAGAUAUCUA (ssRNA) [bcd NRE RNA]
- binding result (Pum PUM-HD WT (EMSA) [8]): no binding
- binding result [9]: binds

- percent repression of the RnLuc WT hb 3´UTR reporter in D.mel-2 cells (endogenous Pum), against Halo-tag alone [1]: 70%
B4: Halo-tagged, full-length Nos protein (NZC) (natural protein)
chain: MFRSNLEGSGAAADNFSAFHARGGLNILGLQDMYLDTSGANSSATLSPPITPVTPDPSTSAQSTHFPFLADSAATANSLLMQRQYHYHLLLQQQQQLAMAQHQLALAASAAAASASHQQTDEIARSLKIFAQVTTGAAENAAGSMQDVMQEFATNGYASDDLGRMSYGSAPPQVQMPPQQQHQQQQGLHLPLGRNPAQLQTNGGNLMPIPLATHWLNNYREHLNNVWRNMSYIPAAPNTMGLQAQTAATVSTNLGVGMGLGLPVQGEQLRGASNSSNNNNNNNKVYKRYNSKAKEISRHCVFCENNNEPEAVINSHSVRDNFNRVLCPKLRTYVCPICGASGDSAHTIKYCPKKPIITMEDAIKAESFRLAKSSYYKQQMKV

Molecule: AAAUACAACAUAAGCC (ssRNA) [hb NRE2 ACA RNA]
- binding result (Pum PUM-HD WT (EMSA) [10]): no binding
- binding result [11]: no binding

Molecule: GAAUUGUAUAUAUUCG (ssRNA) [hb NRE1 RNA]
- binding result (Pum PUM-HD WT (EMSA) [8]): no binding
- binding result [9]: binds

Molecule: AACUUGUACAUAAGCC (ssRNA) [hb NRE2 -2C RNA]
- binding result (Pum PUM-HD WT (EMSA) [12]): binds

Molecule: AAACUGUACAUAAGCC (ssRNA) [hb NRE2 -1C RNA]
- binding result (Pum PUM-HD WT (EMSA) [12]): binds
